Measurements from patent US20230279132A1, “TREATMENT OF B CELL MALIGNANCIES” (NOVARTIS AG, priority 2020, published 2023).

Target: B-cell activating factor receptor (BAFF-R) (human) (UniProt Q96RJ3)
Experiment: receptor occupancy in patients with CLL given VAY736 i.v. with ibrutinib (clinical study CVAY736Y2102); method not stated

B1: ianalumab (antibody, human IgG1, kappa, V domains shown)
VH: QVQLQQSGPGLVKPSQTLSLTCAISGDSVSSNSAAWGWIRQSPGRGLEWLGRIYYRSKWYNSYAVSVKSRITINPDTSKNQFSLQLNSVTPEDTAVYYCARYDWVPKIGVFDSWGQGTLVTVSS
VL: DIVLTQSPATLSLSPGERATLSCRASQFISSSYLSWYQQKPGQAPRLLIYGSSSRATGVPARFSGSGSGTDFTLTISSLEPEDFAVYYCQQLYSSPMTFGQGTKVEIKR
  tissue receptor occupancy: > 99%
